Values belong to the molecule of their own block, whether it stands above or below them. No end group written: not given here. *: point of attachment. Biotin = O=C1N[C@H]2[C@H](CS[C@H]2CCCCC(=O)*)N1
How the values were obtained:
[1] = molecular target: murine TpoR ectodomain, monomeric (TpoR_(1-479)) (mouse) (UniProt Q08351); test: SPR; high concentrations of the Tpo F162E mutant, up to 10 µM; which TpoR form and which partner was immobilised is not stated
[2] = molecular target: murine TpoR ectodomain, monomeric (TpoR_(1-479)) (mouse) (UniProt Q08351)
[3] = molecular target: T1, murine TpoR ectodomain, monomeric (TpoR_(1-479)) (mouse, UniProt Q08351 26-479, N-linked glycans at N117, N178, N349; tryptophan mannosylation (W465, W468)); test: SPR; TpoR over immobilised romiplostim peptide
T1 chain: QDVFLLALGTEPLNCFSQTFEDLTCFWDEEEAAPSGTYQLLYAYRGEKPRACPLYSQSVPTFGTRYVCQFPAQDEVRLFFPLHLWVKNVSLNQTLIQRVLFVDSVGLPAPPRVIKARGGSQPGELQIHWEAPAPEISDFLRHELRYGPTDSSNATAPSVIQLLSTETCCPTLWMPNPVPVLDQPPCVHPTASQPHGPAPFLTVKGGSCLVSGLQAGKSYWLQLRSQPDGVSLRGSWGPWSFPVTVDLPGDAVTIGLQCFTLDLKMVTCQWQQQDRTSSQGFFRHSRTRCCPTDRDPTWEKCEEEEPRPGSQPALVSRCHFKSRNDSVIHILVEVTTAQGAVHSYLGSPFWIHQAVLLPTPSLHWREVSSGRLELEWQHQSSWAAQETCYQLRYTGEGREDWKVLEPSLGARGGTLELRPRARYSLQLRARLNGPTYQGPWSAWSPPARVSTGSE

[4] = molecular target: T1, murine TpoR ectodomain, monomeric …; test: SPR; TpoR over immobilised romiplostim peptide
[5] = molecular target: T2, murine TpoR ectodomain, monomeric (TpoR_(1-479)) (mouse, UniProt Q08351 26-479, N-linked glycans at N117, N178, N349; tryptophan mannosylation (W465, W468)); test: SPR; TpoR (monomeric, dimeric or mutants) as analyte over N-terminally biotinylated romiplostim peptides on streptavidin chips; HBS-EP; two-fold dilution series, highest 100 nM; conditions: both partners purified
T2 construct: signal peptide in the construct; Thrombopoietin receptor (c-Mpl), mouse, residues 1-479, followed by a TEV cleavage site and the Fc domain of hIgG1; Eluted from Protein G resin by TEV cleavage; residues of the TEV site may remain at the C-terminus; also called murine TpoR (monomeric); source: Expi293F cells, transiently transfected, secreted; purified (Protein G Sepharose, TEV elution, Superdex …)
T2 sequence (looked up): T1 chain

Molecule: murine Tpo D29Y (site II mutant) (from UniProt P40226 22-356) (ligand)
ability to induce differentiation of M1(TpoR) cells, fold decrease relative to the WT [2]: 100 fold

B1: peptide version of romiplostim (two copies of IEGPTLRQWLAARA connected by a GG linker) (peptide)
peptide: Biotin-IEGPTLRQWLAARAGGIEGPTLRQWLAARA
notes: two copies of the TpoR agonist peptide joined by GG; Not the Fc fusion drug itself; The biotin is stated for the peptides coupled to streptavidin chips; also called romiplostim peptide; dimeric romiplostim peptide; source: synthetic peptide
koff [3]: 0.017 s⁻¹ | Kd [4]: 71 nM | binding result [5]: binds

B2: monomeric version of the romiplostim peptide (peptide)
peptide: Biotin-IEGPTLRQWLAARA
notes: TpoR agonist peptide motif of romiplostim; also called monomeric-romiplostim; monomeric version of the peptide; source: synthetic peptide
binding result [5]: binds

Other lines, results leading:

Kd [1]: > 10000 nM
Molecule: murine Tpo F162E (site I mutant) (from UniProt P40226 22-356) (ligand)

ability to induce differentiation of M1(TpoR) cells, fold decrease relative to the WT [2]: 100 fold
Molecule: murine Tpo D29E (site II mutant) (from UniProt P40226 22-356) (ligand)

— paper PMC10850085 (Nature Communications, 2024)
